One may read the Kd as the free concentration of one partner at which half of the binding sites on the other are occupied at equilibrium, for simple one-to-one binding. Higher therefore signals weaker binding.

The chains are these.
B1: His6-tagged GFP–SRY-HMG, wild type (SRY residues 55–141) (domain or fragment)
chain: not shown
B2: His6-tagged GFP–SRY-HMG Y127C (SRY residues 55–141) (domain or fragment)
chain: not shown
B3: His6-tagged GFP–SRY-HMG R76P (SRY residues 55–141) (domain or fragment)
chain: not shown
B4: His6-tagged GFP–SRY-HMG F67V (SRY residues 55–141) (domain or fragment)
chain: not shown
B5: His6-tagged GFP–SRY-HMG M64T (SRY residues 55–141) (domain or fragment)
chain: not shown

In the first test the target is biotin-labelled calmodulin (CaM) (UniProt P0DP23 1-149, biotin (site not stated)). Briefly: AlphaScreen or HTRF. (In general: Alpha assays give light when donor and acceptor beads are brought close together.)
As for B1, the Kd came out at 0.43 nM. Still for that read-out and setting: the value for B2 was 0.62 nM.

In a further test the target is biotinylated Impβ1 (GST-fusion protein, biotinylated with sulfo-NHS-biotin) (UniProt P70168 1-876, biotin (sulfo-NHS-biotin reagent; sites not stated)). In words: AlphaScreen or HTRF.
biotinylated Impβ1 (GST-fusion protein, biotinylated with sulfo-NHS-biotin), sequence (P70168 whole entry, the tested form may be a part): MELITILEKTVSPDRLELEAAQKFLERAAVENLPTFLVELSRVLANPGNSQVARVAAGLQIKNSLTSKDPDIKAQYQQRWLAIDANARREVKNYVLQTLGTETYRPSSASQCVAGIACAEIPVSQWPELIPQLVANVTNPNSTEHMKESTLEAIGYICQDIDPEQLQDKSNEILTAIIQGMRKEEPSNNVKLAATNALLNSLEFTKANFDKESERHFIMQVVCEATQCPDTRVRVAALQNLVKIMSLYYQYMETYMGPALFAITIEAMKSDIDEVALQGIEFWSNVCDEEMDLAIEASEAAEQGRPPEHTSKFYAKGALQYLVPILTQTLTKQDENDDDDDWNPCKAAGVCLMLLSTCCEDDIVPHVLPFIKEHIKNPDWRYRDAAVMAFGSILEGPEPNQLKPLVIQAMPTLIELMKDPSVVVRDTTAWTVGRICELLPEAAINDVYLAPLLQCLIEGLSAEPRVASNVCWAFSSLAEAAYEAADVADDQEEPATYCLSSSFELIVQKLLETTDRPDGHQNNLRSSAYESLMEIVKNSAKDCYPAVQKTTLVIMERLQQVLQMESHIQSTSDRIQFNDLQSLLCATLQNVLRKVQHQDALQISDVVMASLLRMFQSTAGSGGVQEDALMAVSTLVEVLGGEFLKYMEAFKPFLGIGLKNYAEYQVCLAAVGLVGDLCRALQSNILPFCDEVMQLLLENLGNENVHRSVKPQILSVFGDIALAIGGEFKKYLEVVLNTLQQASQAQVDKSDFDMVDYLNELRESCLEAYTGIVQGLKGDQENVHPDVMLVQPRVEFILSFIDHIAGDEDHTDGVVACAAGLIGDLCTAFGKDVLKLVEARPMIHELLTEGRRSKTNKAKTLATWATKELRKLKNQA
For B3, binding was characterised by a dissociation constant (Kd) of 0.89 nM. B1 showed a Kd of 0.94 nM. Same read-out and setting: in the case of B4 it was 1.09 nM. Turning to B2, the Kd stood at 3.6 nM. Take B5: the Kd turned out to be 1.42 nM.

The values are drawn from article PMC2911679 (Biochemical Journal, 2010).
